Experimental data taken from US20140221281A1 (Sanofi, published 2014).
*1 amine or outer side, *2 acyl side, *3 side chain or, on linkers, in order; H or OH if unused. Where no end group is shown, it is not given here. Side-chain parts run from the residue outwards. [ ]: non-standard residue; d: D form. The star is where a group is joined. γGlu = O=C(O)[C@H](CCC(=O)[*:2])N[*:1]; Stearoyl = CCCCCCCCCCCCCCCCCC(=O)*; Palmitoyl = CCCCCCCCCCCCCCCC(=O)*; αMeK = C[C@](N)(CCCCN)C(=O)O; Api = NC1(C(=O)O)CCNCC1; Aib = CC(C)(N)C(=O)O

T1: human GIP receptor (human, UniProt P48546 22-466)
T1 sequence (looked up): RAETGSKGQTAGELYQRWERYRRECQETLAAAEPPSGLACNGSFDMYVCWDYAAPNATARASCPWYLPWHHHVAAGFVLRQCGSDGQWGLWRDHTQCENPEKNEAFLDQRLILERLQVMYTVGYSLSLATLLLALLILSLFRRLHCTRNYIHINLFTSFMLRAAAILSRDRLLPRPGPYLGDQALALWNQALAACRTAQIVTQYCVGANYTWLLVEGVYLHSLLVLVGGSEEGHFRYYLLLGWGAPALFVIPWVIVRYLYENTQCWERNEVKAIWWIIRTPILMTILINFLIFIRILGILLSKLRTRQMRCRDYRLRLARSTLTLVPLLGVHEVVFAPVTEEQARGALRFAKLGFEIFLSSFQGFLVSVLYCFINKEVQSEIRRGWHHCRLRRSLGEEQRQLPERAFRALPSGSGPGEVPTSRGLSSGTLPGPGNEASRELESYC

B1: SEQ ID NO: 8 (peptide)
peptide: Y[Aib]EGTFTSDLSIQK([γGlu-Palmitoyl])EERAA[Api]EFIEWLKNTGPSSGAPPPS-NH2
modifications: N-terminus assumed
SMILES: CCCCCCCCCCCCCCCC(=O)N[C@@H](CCC(=O)NCCCC[C@H](NC(=O)[C@H](CCC(N)=O)NC(=O)[C@@H](NC(=O)[C@H](CO)NC(=O)[C@H](CC(C)C)NC(=O)[C@H](CC(=O)O)NC(=O)[C@H](CO)NC(=O)[C@@H](NC(=O)[C@H](Cc1ccccc1)NC(=O)[C@@H](NC(=O)CNC(=O)[C@H](CCC(=O)O)NC(=O)C(C)(C)NC(=O)[C@@H](N)Cc1ccc(O)cc1)[C@@H](C)O)[C@@H](C)O)[C@@H](C)CC)C(=O)N[C@@H](CCC(=O)O)C(=O)N[C@@H](CCC(=O)O)C(=O)N[C@@H](CCCNC(=N)N)C(=O)N[C@@H](C)C(=O)N[C@@H](C)C(=O)NC1(C(=O)N[C@@H](CCC(=O)O)C(=O)N[C@@H](Cc2ccccc2)C(=O)N[C@H](C(=O)N[C@@H](CCC(=O)O)C(=O)N[C@@H](Cc2c[nH]c3ccccc23)C(=O)N[C@@H](CC(C)C)C(=O)N[C@@H](CCCCN)C(=O)N[C@@H](CC(N)=O)C(=O)N[C@H](C(=O)NCC(=O)N2CCC[C@H]2C(=O)N[C@@H](CO)C(=O)N[C@@H](CO)C(=O)NCC(=O)N[C@@H](C)C(=O)N2CCC[C@H]2C(=O)N2CCC[C@H]2C(=O)N2CCC[C@H]2C(=O)N[C@@H](CO)C(N)=O)[C@@H](C)O)[C@@H](C)CC)CCNCC1)C(=O)O
B2: SEQ ID NO: 12 (peptide)
peptide: Y[Aib]QGTFTSDLSKQK([γGlu-Stearoyl])DEQRA[αMeK]EFIEWLKSGGPSSGAPPPS-NH2
modifications: N-terminus assumed
SMILES: CCCCCCCCCCCCCCCCCC(=O)N[C@@H](CCC(=O)NCCCC[C@H](NC(=O)[C@H](CCC(N)=O)NC(=O)[C@H](CCCCN)NC(=O)[C@H](CO)NC(=O)[C@H](CC(C)C)NC(=O)[C@H](CC(=O)O)NC(=O)[C@H](CO)NC(=O)[C@@H](NC(=O)[C@H](Cc1ccccc1)NC(=O)[C@@H](NC(=O)CNC(=O)[C@H](CCC(N)=O)NC(=O)C(C)(C)NC(=O)[C@@H](N)Cc1ccc(O)cc1)[C@@H](C)O)[C@@H](C)O)C(=O)N[C@@H](CC(=O)O)C(=O)N[C@@H](CCC(=O)O)C(=O)N[C@@H](CCC(N)=O)C(=O)N[C@@H](CCCNC(=N)N)C(=O)N[C@@H](C)C(=O)N[C@@](C)(CCCCN)C(=O)N[C@@H](CCC(=O)O)C(=O)N[C@@H](Cc1ccccc1)C(=O)N[C@H](C(=O)N[C@@H](CCC(=O)O)C(=O)N[C@@H](Cc1c[nH]c2ccccc12)C(=O)N[C@@H](CC(C)C)C(=O)N[C@@H](CCCCN)C(=O)N[C@@H](CO)C(=O)NCC(=O)NCC(=O)N1CCC[C@H]1C(=O)N[C@@H](CO)C(=O)N[C@@H](CO)C(=O)NCC(=O)N[C@@H](C)C(=O)N1CCC[C@H]1C(=O)N1CCC[C@H]1C(=O)N1CCC[C@H]1C(=O)N[C@@H](CO)C(N)=O)[C@@H](C)CC)C(=O)O

How the values were obtained:
Test in all cases: cell-based or functional assay
human GLP-1 receptor = human GLP-1 receptor (human, UniProt P43220 24-463)
human GIP receptor = biological target: T1, human GIP receptor
human glucagon receptor = human glucagon receptor (human, UniProt P47871 26-477)
Chain of human glucagon receptor (P47871 26-477): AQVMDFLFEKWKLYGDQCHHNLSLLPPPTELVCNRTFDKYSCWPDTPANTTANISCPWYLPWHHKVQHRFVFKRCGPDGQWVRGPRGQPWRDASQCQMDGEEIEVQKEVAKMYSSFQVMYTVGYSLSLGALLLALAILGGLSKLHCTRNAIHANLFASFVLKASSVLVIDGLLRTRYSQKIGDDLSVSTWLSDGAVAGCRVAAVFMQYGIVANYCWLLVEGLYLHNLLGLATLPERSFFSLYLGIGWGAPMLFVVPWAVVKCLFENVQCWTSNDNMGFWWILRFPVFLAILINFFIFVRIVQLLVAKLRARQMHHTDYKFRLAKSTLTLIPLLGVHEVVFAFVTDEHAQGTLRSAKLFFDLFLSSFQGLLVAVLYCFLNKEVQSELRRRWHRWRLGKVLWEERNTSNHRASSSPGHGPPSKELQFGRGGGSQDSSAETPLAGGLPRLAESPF

Binder	EC50 hGLP-1 R [pM] (cAMP formation) (human GLP-1 receptor)	EC50 hGIP R [pM] (cAMP formation) (human GIP receptor)	EC50 hGLUC R [pM] (cAMP formation) (human glucagon receptor)
B1	4.7	16.3	34700
B2	11.6	27	
